In patent publication US6521741:

Target: TLHL

B1: tobacco etch virus (TEV) protease (protein)
chain: GESLFKGPRDYNPISSTICHLTNESDGHTTSLYGIGFGPFIITNKHLFRRNNGTLLVQSLHGVFKVKNTTTLQQHLIDGRDMIIIRMPKDFPPFPQKLKFREPQREERICLVTTNFQTKSMSSMVSDTSCTFPSSDGIFWKHWIQTKDGQCGSPLVSTRDGFIVGIHSASNFTNTNNYFTSVPKNFMELLTNQEAQQWVSGWRLNADSVLWGGHKVFMSKPEEPFQPVKEATQLMNELVYSQ
  proteolytic cleavage seen on SDS-PAGE: Incubation of TLHL with the TEV protease in PBS at room temperature or at 4 °C produced therefore, a 19kD band on an SDS-PAGE gel
